According to patent publication US20230272114A1:

Experiments:
Test in all cases: Biacore SPR
human FcγRI (human) = human FcγRI (human) (UniProt P12314)
[1] = molecular target: human H131 FcγRIIa (human) (UniProt P12318)
[2] = molecular target: human V158 FcγRIIIa (human) (UniProt P08637)
[3] = molecular target: recombinant human FcγRIIb protein (R&D Systems) (human) (UniProt P31994)
recombinant human FcγRIIb protein (R&D Systems) (human), sequence (P31994 46-217): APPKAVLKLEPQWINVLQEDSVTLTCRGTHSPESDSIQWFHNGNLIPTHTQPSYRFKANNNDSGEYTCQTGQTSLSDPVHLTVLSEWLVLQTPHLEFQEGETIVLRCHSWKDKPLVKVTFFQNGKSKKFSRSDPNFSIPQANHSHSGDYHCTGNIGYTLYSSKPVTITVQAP

human FcγRI (human), sequence (P12314 16-288): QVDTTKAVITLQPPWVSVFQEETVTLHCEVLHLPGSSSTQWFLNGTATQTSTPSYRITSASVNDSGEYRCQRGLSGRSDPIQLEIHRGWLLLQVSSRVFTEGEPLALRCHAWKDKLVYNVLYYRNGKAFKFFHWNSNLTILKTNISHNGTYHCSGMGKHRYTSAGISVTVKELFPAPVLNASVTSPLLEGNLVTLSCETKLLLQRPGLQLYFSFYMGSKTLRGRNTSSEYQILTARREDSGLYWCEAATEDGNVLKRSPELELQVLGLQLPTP

- Kd (human FcγRI (human)): 0.17 nM
- Kd [1]: 700 nM
- Kd [2]: 62 nM
- Kd [3]: 12 nM
Substance: anti-CD19 antibody HuAM4G7 IgG1 Fc variant S239D/S267E
